Measured values taken from US20250277046A1 (JULIUS MAXIMILIANS UNIVERSIT T W RZBURG, published 2025).

T1: Fibroblast growth factor (FGF)-inducible 14 (Fn14) (UniProt Q9NP84 28-129, limits assumed)
T1 sequence (looked up): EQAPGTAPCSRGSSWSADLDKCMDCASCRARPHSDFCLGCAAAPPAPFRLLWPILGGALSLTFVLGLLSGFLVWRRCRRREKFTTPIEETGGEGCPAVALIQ

B1: 18D1-(3) (antibody)
heavy: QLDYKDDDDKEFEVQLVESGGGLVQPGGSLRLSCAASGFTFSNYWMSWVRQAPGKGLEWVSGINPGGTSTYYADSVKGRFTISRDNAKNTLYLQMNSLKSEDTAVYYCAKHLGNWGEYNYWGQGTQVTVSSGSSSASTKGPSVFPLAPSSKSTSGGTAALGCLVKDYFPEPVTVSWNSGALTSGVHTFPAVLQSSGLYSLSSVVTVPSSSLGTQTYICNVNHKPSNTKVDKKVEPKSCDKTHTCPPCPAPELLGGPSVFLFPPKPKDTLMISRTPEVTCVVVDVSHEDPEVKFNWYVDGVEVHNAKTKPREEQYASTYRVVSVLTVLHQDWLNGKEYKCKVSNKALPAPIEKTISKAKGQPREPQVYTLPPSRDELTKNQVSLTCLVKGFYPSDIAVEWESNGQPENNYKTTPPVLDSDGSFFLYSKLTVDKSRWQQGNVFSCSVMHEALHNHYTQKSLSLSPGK
light: QLDYKDDDDKEFQSALTQPPSVSGSPGKTVTISCAGTGGDVGYRNSVSWYQQLPGMAPKLLIYDVDKRASGITDRFSGSKSGDTASLTISGVQSEDEADYYCASQRSGIAAVFGGGTHLTVLGGSEIKRTVAAPSVFIFPPSDEQLKSGTASVVCLLNNFYPREAKVQWKVDNALQSGNSQESVTEQDSKDSTYSLSSTLTLSKADYEKHKVYACEVTHQGLSSPVTKSFNRGECLEEVQLVESGGGLVQPGGSLRLSCAASGFTFSNYWMSWVRQAPGKGLEWVSGINPGGTSTYYADSVKGRFTISRDNAKNTLYLQMNSLKSEDTAVYYCAKHLGNWGEYNYWGQGTQVTVSSRSSTKGPKLEEGEFSEAQLQSALTQPPSVSGSPGKTVTISCAGTGGDVGYRNSVSWYQQLPGMAPKLLIYDVDKRASGITDRFSGSKSGDTASLTISGVQSEDEADYYCASQRSGIAAVFGGGTHLTVLG
B2: 18D1-(4) (antibody)
heavy: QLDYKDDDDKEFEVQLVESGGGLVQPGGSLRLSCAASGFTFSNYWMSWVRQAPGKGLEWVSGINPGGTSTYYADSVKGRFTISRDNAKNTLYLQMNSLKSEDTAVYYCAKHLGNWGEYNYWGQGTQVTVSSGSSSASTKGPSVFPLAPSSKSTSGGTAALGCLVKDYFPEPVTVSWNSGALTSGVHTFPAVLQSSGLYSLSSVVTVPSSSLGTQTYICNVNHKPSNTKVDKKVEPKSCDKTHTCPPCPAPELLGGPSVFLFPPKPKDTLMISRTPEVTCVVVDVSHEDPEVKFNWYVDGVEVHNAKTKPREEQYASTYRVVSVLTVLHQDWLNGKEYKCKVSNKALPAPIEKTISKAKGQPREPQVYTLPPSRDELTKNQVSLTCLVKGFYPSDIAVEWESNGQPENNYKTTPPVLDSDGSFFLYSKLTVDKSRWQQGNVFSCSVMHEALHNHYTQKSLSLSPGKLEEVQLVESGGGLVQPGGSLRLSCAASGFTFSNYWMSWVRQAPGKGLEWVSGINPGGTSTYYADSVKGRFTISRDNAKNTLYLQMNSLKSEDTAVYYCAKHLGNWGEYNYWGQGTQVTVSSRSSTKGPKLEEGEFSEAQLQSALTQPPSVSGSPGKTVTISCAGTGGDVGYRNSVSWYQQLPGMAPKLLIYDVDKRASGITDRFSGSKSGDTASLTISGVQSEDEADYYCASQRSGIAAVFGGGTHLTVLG
light: B1 light
B3: 18D1-(2) (antibody)
heavy: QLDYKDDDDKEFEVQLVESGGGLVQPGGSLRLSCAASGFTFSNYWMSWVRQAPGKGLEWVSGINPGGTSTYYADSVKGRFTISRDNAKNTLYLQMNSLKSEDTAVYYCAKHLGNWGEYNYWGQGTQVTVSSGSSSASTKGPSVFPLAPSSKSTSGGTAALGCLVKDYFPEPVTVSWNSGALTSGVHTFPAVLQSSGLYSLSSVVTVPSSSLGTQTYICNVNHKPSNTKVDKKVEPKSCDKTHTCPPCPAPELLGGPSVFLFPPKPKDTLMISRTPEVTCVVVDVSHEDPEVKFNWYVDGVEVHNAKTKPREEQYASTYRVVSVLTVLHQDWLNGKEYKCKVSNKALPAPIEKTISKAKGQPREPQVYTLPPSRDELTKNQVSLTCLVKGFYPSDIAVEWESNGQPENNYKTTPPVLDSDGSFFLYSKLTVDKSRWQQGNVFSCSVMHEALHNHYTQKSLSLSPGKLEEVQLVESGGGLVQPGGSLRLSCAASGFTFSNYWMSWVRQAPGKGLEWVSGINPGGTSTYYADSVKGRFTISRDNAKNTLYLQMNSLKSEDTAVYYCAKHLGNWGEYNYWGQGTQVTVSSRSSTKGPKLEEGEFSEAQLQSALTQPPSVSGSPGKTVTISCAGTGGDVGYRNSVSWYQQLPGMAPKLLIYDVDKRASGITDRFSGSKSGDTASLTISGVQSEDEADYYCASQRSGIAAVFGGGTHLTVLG
light: QLDYKDDDDKEFQSALTQPPSVSGSPGKTVTISCAGTGGDVGYRNSVSWYQQLPGMAPKLLIYDVDKRASGITDRFSGSKSGDTASLTISGVQSEDEADYYCASQRSGIAAVFGGGTHLTVLGGSEIKRTVAAPSVFIFPPSDEQLKSGTASVVCLLNNFYPREAKVQWKVDNALQSGNSQESVTEQDSKDSTYSLSSTLTLSKADYEKHKVYACEVTHQGLSSPVTKSFNRGEC
B4: 18D1-(5) (antibody)
heavy: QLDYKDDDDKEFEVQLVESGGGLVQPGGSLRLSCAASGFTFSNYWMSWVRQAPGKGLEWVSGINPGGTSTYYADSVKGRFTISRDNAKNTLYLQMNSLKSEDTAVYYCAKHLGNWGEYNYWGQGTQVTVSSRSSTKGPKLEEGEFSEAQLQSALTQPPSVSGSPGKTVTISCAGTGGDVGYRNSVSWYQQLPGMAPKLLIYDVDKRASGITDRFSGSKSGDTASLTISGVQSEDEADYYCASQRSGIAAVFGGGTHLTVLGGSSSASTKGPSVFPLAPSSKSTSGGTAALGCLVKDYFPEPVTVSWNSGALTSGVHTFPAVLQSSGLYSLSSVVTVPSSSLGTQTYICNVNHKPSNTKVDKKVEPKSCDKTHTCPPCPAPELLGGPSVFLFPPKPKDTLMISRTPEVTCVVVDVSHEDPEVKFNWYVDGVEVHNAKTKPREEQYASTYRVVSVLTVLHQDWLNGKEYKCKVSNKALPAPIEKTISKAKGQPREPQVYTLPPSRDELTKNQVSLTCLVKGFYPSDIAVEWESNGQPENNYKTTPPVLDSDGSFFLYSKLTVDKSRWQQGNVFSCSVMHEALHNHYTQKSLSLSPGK
light: QLDYKDDDDKEFEVQLVESGGGLVQPGGSLRLSCAASGFTFSNYWMSWVRQAPGKGLEWVSGINPGGTSTYYADSVKGRFTISRDNAKNTLYLQMNSLKSEDTAVYYCAKHLGNWGEYNYWGQGTQVTVSSRSSTKGPKLEEGEFSEAQLQSALTQPPSVSGSPGKTVTISCAGTGGDVGYRNSVSWYQQLPGMAPKLLIYDVDKRASGITDRFSGSKSGDTASLTISGVQSEDEADYYCASQRSGIAAVFGGGTHLTVLGGSEIKRTVAAPSVFIFPPSDEQLKSGTASVVCLLNNFYPREAKVQWKVDNALQSGNSQESVTEQDSKDSTYSLSSTLTLSKADYEKHKVYACEVTHQGLSSPVTKSFNRGEC
B5: 18D1-(6) (antibody)
heavy: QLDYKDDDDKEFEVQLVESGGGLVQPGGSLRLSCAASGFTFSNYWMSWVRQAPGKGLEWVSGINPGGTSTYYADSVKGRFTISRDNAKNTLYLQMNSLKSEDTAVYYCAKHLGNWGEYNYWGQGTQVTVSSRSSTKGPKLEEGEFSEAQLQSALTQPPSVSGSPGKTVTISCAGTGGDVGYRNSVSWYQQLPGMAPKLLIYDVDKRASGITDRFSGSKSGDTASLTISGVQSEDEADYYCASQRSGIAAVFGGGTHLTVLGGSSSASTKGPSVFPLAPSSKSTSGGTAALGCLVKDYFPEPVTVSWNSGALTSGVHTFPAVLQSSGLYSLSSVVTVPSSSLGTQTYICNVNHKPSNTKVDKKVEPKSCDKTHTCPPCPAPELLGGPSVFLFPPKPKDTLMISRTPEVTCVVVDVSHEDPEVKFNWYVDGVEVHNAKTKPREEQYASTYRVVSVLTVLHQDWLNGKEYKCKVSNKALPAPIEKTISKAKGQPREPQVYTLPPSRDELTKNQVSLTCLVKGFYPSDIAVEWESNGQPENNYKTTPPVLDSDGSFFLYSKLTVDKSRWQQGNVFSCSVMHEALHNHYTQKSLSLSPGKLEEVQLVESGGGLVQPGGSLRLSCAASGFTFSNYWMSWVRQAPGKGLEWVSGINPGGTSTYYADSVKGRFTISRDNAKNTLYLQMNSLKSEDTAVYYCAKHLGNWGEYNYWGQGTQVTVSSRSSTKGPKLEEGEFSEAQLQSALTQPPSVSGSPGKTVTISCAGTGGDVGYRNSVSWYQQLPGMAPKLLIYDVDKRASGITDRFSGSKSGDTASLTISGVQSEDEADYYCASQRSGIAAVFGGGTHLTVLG
light: B4 light
B6: 18D1-(7) (antibody)
heavy: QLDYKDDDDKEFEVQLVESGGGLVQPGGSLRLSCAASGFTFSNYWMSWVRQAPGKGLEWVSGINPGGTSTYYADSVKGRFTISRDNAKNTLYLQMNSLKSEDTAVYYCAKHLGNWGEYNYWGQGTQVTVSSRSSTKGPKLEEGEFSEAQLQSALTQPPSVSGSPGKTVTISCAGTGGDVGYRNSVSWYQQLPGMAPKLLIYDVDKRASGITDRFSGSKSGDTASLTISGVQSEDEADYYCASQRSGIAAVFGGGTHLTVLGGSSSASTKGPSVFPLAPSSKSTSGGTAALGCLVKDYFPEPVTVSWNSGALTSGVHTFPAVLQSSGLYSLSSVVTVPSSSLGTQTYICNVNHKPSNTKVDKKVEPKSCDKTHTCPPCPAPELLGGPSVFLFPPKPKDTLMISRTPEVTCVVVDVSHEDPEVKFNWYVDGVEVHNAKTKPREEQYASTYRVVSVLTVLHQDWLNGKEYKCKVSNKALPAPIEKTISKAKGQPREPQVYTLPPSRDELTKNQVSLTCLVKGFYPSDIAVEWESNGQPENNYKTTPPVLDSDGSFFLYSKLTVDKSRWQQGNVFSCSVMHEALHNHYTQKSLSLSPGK
light: QLDYKDDDDKEFEVQLVESGGGLVQPGGSLRLSCAASGFTFSNYWMSWVRQAPGKGLEWVSGINPGGTSTYYADSVKGRFTISRDNAKNTLYLQMNSLKSEDTAVYYCAKHLGNWGEYNYWGQGTQVTVSSRSSTKGPKLEEGEFSEAQLQSALTQPPSVSGSPGKTVTISCAGTGGDVGYRNSVSWYQQLPGMAPKLLIYDVDKRASGITDRFSGSKSGDTASLTISGVQSEDEADYYCASQRSGIAAVFGGGTHLTVLGGSEIKRTVAAPSVFIFPPSDEQLKSGTASVVCLLNNFYPREAKVQWKVDNALQSGNSQESVTEQDSKDSTYSLSSTLTLSKADYEKHKVYACEVTHQGLSSPVTKSFNRGECLEEVQLVESGGGLVQPGGSLRLSCAASGFTFSNYWMSWVRQAPGKGLEWVSGINPGGTSTYYADSVKGRFTISRDNAKNTLYLQMNSLKSEDTAVYYCAKHLGNWGEYNYWGQGTQVTVSSRSSTKGPKLEEGEFSEAQLQSALTQPPSVSGSPGKTVTISCAGTGGDVGYRNSVSWYQQLPGMAPKLLIYDVDKRASGITDRFSGSKSGDTASLTISGVQSEDEADYYCASQRSGIAAVFGGGTHLTVLG
B7: 18D1-(8) (antibody)
heavy: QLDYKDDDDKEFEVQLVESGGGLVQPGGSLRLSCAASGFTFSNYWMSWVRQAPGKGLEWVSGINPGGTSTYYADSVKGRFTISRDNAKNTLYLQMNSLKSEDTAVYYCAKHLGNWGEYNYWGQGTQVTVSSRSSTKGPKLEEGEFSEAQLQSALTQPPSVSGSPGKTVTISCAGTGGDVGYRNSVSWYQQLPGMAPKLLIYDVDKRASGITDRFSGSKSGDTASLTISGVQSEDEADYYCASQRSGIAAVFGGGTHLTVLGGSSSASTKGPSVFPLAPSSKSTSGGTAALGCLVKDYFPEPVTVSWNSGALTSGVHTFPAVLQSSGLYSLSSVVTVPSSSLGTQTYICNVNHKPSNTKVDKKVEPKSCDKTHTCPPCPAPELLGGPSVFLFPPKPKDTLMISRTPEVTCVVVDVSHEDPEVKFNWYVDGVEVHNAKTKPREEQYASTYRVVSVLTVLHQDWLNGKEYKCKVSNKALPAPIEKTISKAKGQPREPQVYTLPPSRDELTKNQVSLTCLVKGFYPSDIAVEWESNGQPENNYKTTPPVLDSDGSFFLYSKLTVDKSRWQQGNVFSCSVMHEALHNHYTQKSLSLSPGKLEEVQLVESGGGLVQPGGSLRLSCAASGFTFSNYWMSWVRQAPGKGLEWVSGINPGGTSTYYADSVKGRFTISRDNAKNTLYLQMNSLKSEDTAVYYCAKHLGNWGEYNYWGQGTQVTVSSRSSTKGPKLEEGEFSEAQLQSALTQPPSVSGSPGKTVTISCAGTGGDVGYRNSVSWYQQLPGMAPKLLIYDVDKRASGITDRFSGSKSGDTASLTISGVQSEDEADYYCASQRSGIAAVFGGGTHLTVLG
light: B6 light

Each binder was assayed against T1, Fibroblast growth factor … (assay: cell-based or functional assay).

Row | Binder | enhancement of TNF-induced toxicity (HeLa-RIPK3-FADDKO cells, 1 ng/ml TNF), ED50 [µg/mL] | p100 processing (western blot), starting concentration [ng/mL]
1 | B1 | < 0.1 | ~20
2 | B2 | < 0.1 | ~20
3 | B3 | < 0.1 | ~20
4 | B4 | < 0.1 | ~200
5 | B5 | < 0.1 | ~200
6 | B6 | < 0.1 | ~200
7 | B7 | < 0.1 | ~200
